This assay addresses ToxT from Vibrio cholerae serogroup O42 strain SCE-256, wild type, purified (Vibrio cholerae serogroup O42 strain SCE-256) (UniProt Q7BGC0). Kind of assay: SEC-SAXS. Background: SEC sorts molecules by how far they enter the pores of the column.

The term stoichiometry N denotes a count of units in the complex or per binding partner. Turning to “ToxT from Vibrio cholerae serogroup O42 strain SCE-256, wild type, purified (from UniProt Q7BGC0 1-276) (natural protein)”, the stoichiometry N is 2.
